Experimental data taken from patent US20220017622A1 (Pfizer, published 2022).
Changes are numbered by the printed parent chain.

Legend:
[1] = biological target: T1, human B7-H4 on cells (human, UniProt Q7Z7D3 25-282); assay: cell-based or functional assay
T1 sequence (looked up): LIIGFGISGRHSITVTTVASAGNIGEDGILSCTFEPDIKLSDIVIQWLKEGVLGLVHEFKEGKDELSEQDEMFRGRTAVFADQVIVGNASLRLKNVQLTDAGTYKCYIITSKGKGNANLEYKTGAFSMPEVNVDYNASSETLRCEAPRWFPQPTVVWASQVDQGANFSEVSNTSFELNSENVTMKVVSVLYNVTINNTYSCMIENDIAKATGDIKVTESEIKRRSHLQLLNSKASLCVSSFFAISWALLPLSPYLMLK

[2] = biological target: T2, human CD3 (delta/epsilon heterodimer) (human, UniProt P07766 23-126; P04234 22-105); assay: SPR 25 C; CD3 delta/epsilon on anti-His chip, bispecific analyte
T2 construct: captured on an anti-His chip, so it carries a His tag; also called huCD3
T2 sequence (P07766 23-126, stated change not applied, chain 1 of 2): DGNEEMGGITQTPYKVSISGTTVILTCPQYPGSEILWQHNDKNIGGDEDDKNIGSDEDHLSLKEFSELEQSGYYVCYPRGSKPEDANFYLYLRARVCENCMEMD
T2 sequence (P04234 22-105, stated change not applied, chain 2 of 2): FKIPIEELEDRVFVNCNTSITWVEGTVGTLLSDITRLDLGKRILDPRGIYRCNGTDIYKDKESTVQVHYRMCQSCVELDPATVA

[3] = biological target: T3, cyno CD3 (delta/epsilon heterodimer) (cyno, UniProt Q95LI5 22-117; Q95LI8 22-105); assay: as above
T3 construct: also called cyCD3
T3 sequence (Q95LI5 22-117, stated change not applied, chain 1 of 2): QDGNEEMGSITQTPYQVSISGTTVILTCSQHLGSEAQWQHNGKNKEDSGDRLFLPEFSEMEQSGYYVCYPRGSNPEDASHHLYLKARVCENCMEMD
T3 sequence (Q95LI8 22-105, stated change not applied, chain 2 of 2): as the sequence (P04234 22-105, stated change not applied, chain 2 of 2) above, with I5V, N15K, I20V, S32T, D33N, I34N, T64A, S74N, V83L counted along it

[4] = biological target: T4, rat B7-H4 extracellular domain (rat, UniProt Q501W4 29-257); assay: SPR 37 C; bispecific on anti-hFc chip, ECD analyte
T4 construct: Soluble ECD used as SPR analyte; also called ratB7-H4 ECD
T4 sequence: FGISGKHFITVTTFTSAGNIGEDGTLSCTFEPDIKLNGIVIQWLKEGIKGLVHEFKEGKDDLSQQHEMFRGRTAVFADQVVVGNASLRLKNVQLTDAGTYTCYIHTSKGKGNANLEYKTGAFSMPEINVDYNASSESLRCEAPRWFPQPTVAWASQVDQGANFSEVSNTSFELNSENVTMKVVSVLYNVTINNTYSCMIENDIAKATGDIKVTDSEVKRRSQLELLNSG

[5] = biological target: T5, mouse B7-H4 extracellular domain (mouse, UniProt Q7TSP5 29-258); assay: SPR 37 C; bispecific on anti-hFc chip, ECD analyte
T5 construct: Soluble ECD used as SPR analyte; also called muB7-H4 ECD; muB7-H4
T5 sequence: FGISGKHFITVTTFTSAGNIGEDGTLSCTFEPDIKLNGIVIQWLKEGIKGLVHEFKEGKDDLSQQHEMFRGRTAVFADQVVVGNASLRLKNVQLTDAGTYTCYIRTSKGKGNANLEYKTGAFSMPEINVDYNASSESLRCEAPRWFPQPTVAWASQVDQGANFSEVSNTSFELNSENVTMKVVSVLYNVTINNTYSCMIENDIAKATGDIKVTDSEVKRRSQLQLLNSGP

[6] = biological target: T6, human B7-H4 extracellular domain (human, UniProt Q7Z7D3 29-258); assay: SPR 37 C; bispecific on anti-hFc chip, ECD analyte
T6 construct: Soluble ECD used as SPR analyte; also called huB7-H4 ECD; huB7-H4
T6 sequence: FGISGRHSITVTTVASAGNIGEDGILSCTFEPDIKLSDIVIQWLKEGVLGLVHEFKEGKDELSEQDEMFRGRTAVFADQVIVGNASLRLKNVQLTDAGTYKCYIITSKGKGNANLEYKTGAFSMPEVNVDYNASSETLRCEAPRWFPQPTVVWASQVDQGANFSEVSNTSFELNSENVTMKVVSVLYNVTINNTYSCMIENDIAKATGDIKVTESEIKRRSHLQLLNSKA

[7] = biological target: T7, cyno B7-H4 extracellular domain (cyno, UniProt Q7Z7D3 29-258 (human entry)); assay: SPR 37 C; bispecific on anti-hFc chip, ECD analyte
T7 construct: Soluble ECD used as SPR analyte; also called cyB7-H4 ECD; cyB7-H4
T7 sequence: T6 sequence with L49I

[8] = biological target: T2, human CD3 (delta/epsilon heterodimer); assay: SPR 37 C; CD3 delta/epsilon on anti-His chip, bispecific analyte; CD3 variant 2B5v6
[9] = biological target: T6, human B7-H4 extracellular domain; assay: SPR 37 C; bispecific (IgG2 scaffold) on anti-hFc chip, ECD analyte
[10] = biological target: T5, mouse B7-H4 extracellular domain; assay: SPR 25 C; bispecific on anti-hFc chip, ECD analyte
[11] = biological target: T6, human B7-H4 extracellular domain; assay: SPR 25 C; bispecific on anti-hFc chip, ECD analyte
[12] = biological target: T7, cyno B7-H4 extracellular domain; assay: SPR 25 C; bispecific on anti-hFc chip, ECD analyte
[13] = biological target: T2, human CD3 (delta/epsilon heterodimer); assay: SPR 37 C; CD3 delta/epsilon on anti-His chip, bispecific (IgG2 scaffold) analyte
[14] = biological target: T6, human B7-H4 extracellular domain; assay: SPR 37 C; bispecific on anti-hFc chip, ECD analyte; remark: listed apart in the source
[15] = biological target: T7, cyno B7-H4 extracellular domain; assay: SPR 37 C; bispecific on anti-hFc chip, ECD analyte; remark: listed apart in the source
[16] = biological target: T2, human CD3 (delta/epsilon heterodimer); assay: SPR 37 C; CD3 delta/epsilon on anti-His chip, bispecific analyte
[17] = biological target: T3, cyno CD3 (delta/epsilon heterodimer); assay: as above

B1: B7-H4xCD3 bispecific antibody 0074 (bispecific antibody, IgG2)
heavy 1: QVQLQQWGAGLLKPSETLSLTCAVYGGSFSGYYWNWIRQPPGKGLEWIGEINHSGSTKYNPSLKSRVTISGDTSKNQFSLKLNSVTAADTAVYYCVRGLYNWNVDSWGQGTLVTVSSASTKGPSVFPLAPCSRSTSESTAALGCLVKDYFPEPVTVSWNSGALTSGVHTFPAVLQSSGLYSLSSVVTVPSSNFGTQTYTCNVDHKPSNTKVDKTVERKCEVECPECPAPPVAGPSVFLFPPKPKDTLMISRTPEVTCVVVAVSHEDPEVQFNWYVDGVEVHNAKTKPREEQFNSTFRVVSVLTVVHQDWLNGKEYKCKVSNKGLPSSIEKTISKTKGQPREPQVYTLPPSREEMTKNQVSLTCEVKGFYPSDIAVEWESNGQPENNYKTTPPMLDSDGSFFLYSKLTVDKSRWQQGNVFSCSVMHEALHNHYTQKSLSLSPGK
light 1: DIQMTQSPSSLSASVGDRVTITCRASQGIRNDLGWYQQKPGKAPKRLIYVASSLQSGVPSRFSGSGSGTEFTLTISSLQPEDFATYYCLQHNSYPYTFGQGTKLEIKRTVAAPSVFIFPPSDEQLKSGTASVVCLLNNFYPREAKVQWKVDNALQSGNSQESVTEQDSKDSTYSLSSTLTLSKADYEKHKVYACEVTHQGLSSPVTKSFNRGEC
heavy 2: EVQLVESGGGLVQPGGSLRLSCAASGFTFSDYYMTWVRQAPGKGLEWVAFIRNQARGYTSDHNPSVKGRFTISRDNAKNSLYLQMNSLRAEDTAVYYCARDRPSYYVLDYWGQGTTVTVSSASTKGPSVFPLAPCSRSTSESTAALGCLVKDYFPEPVTVSWNSGALTSGVHTFPAVLQSSGLYSLSSVVTVPSSNFGTQTYTCNVDHKPSNTKVDKTVERKCRVRCPRCPAPPVAGPSVFLFPPKPKDTLMISRTPEVTCVVVAVSHEDPEVQFNWYVDGVEVHNAKTKPREEQFNSTFRVVSVLTVVHQDWLNGKEYKCKVSNKGLPSSIEKTISKTKGQPREPQVYTLPPSREEMTKNQVSLTCLVKGFYPSDIAVEWESNGQPENNYKTTPPMLDSDGSFFLYSRLTVDKSRWQQGNVFSCSVMHEALHNHYTQKSLSLSPGK
light 2: DIQMTQSPSSLSASVGDRVTITCTSSQSLFNVRSQKNYLAWYQQKPGKAPKLLIYWASTRESGVPSRFSGSGSGTDFTLTISSLQPEDFATYYCKQSYDLFTFGGGTKVEIKRTVAAPSVFIFPPSDEQLKSGTASVVCLLNNFYPREAKVQWKVDNALQSGNSQESVTEQDSKDSTYSLSSTLTLSKADYEKHKVYACEVTHQGLSSPVTKSFNRGEC
notes: Chains 1-2: B7-H4 arm; chains 3-4: CD3 arm; IgG2 EEE/RRR; also called anti-B7-H4 clone 28D10; CD3 variant 2B5v6
T cell mediated tumor cell killing EC50, HCC1954-Luc [1]: 73 nM
T cell mediated tumor cell killing, MDA-MB-468 [1]: 42
T cell mediated tumor cell killing, OVCAR3-Luc [1]: 31
T cell mediated tumor cell killing, T47D [1]: 224
Kd [2]: 7.38 nM
koff [2]: 0.00559 s⁻¹
kon [2]: 758000 M⁻¹ s⁻¹
Kd [3]: 8.33 nM
koff [3]: 0.00534 s⁻¹
kon [3]: 642000 M⁻¹ s⁻¹
Kd [4]: 1120 nM
koff [4]: 0.131 s⁻¹
kon [4]: 117000 M⁻¹ s⁻¹
Kd [5]: 776 nM
koff [5]: 0.134 s⁻¹
kon [5]: 173000 M⁻¹ s⁻¹
Kd [6]: 8.86 nM
koff [6]: 0.00509 s⁻¹
kon [6]: 575000 M⁻¹ s⁻¹
Kd [7]: 8.81 nM
koff [7]: 0.00487 s⁻¹
kon [7]: 553000 M⁻¹ s⁻¹
Kd [8]: 56.9 nM
koff [8]: 0.0336 s⁻¹
kon [8]: 592000 M⁻¹ s⁻¹
Kd [9]: 18.2 nM
koff [9]: 0.00582 s⁻¹
kon [9]: 319000 M⁻¹ s⁻¹
Kd [10]: 299 nM
koff [10]: 0.0299 s⁻¹
kon [10]: 100000 M⁻¹ s⁻¹
Kd [11]: 6.83 nM
koff [11]: 0.0012 s⁻¹
kon [11]: 176000 M⁻¹ s⁻¹
Kd [12]: 9.29 nM
koff [12]: 0.0012 s⁻¹
kon [12]: 129000 M⁻¹ s⁻¹
Kd [13]: 56.9 nM
koff [13]: 0.0336 s⁻¹
kon [13]: 592000 M⁻¹ s⁻¹
Kd [14]: 21.9 nM
koff [14]: 0.00602 s⁻¹
kon [14]: 275000 M⁻¹ s⁻¹
Kd [15]: 30.9 nM
koff [15]: 0.00581 s⁻¹
kon [15]: 188000 M⁻¹ s⁻¹
Kd [16]: 41.9 nM
koff [16]: 0.0234 s⁻¹
kon [16]: 558000 M⁻¹ s⁻¹
Kd [17]: 47.1 nM
koff [17]: 0.0239 s⁻¹
kon [17]: 507000 M⁻¹ s⁻¹
